Data from US20260265404A1 (published 2026).

Legend:
[1] = molecular target: T1, human full-length CD33 (CD33^FL) (UniProt P20138 18-364); assay: SPR (Biacore T100)
[2] = molecular target: T1, human full-length CD33 (CD33^FL); assay: SPR (Carterra); 1 µg/mL
[3] = molecular target: T1, human full-length CD33 (CD33^FL); assay: SPR (Carterra); 4 µg/mL
[4] = molecular target: T1, human full-length CD33 (CD33^FL); assay: SPR (Carterra); hybridoma supernatant

T1 sequence (P20138 18-364): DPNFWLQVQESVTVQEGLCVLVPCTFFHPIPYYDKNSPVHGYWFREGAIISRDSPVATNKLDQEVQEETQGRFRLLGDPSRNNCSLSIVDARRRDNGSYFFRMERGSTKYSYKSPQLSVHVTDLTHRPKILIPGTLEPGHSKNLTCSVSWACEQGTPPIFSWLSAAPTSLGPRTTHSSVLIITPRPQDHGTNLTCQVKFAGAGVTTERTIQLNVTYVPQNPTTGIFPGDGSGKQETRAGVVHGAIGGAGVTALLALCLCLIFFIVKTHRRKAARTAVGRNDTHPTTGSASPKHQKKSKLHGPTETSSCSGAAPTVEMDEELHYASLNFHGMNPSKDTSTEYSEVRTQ

| Binder | Kd [1] | Kd [2] | Kd [3] | Kd [4] |
| --- | --- | --- | --- | --- |
| 2D3 antibody (human CD33V-set antibody clone, hybridoma-derived) (antibody, V domains shown) VH: EVQLLESGGGLVQPGGSLSLSCAASGFTFSIYAMSWVRQAPGKGLEWVSAISDSGGTTYYADSVKGRFTISRDNSKNMLYLEMNSLRAEDTAIYYCAKRTRYFNGMDVWGQGTTVTVSS VL: EIVMTQSPATLSLSPGERATLSCRASQSGSSSFLSWYQQKPGQAPRLLIYGASTRATGIPARFSGSGSGTDFTLTISSLQPEDFAVYYCQQDYNLPFTFGPGTKVDIK | 4.89 nM | 18 nM | 27 nM | – |
| 1H8 antibody (human CD33V-set antibody clone, hybridoma-derived) (antibody, V domains shown) VH: QVQLVESGGGVVQPGGSLRLSCAASGFTFGSYGMHWVRQAPGKGLEWVAVIWYDGSNEYYADSVKGRFTVSRDNSKHTLYLQMNRLRAEDTAVYYCARDLDYDSSGGDYWGQGILVLVSS VL: EIVLTQSPDFQSVTPKEKVTITCRASQNIGGNLHWYQQKPDQSPKLLIRYATQPFSGVPSRFGGSGSGTDFTLTINSLEAEDAATYYCHQSSSLPLTFGGGTKVEIK | – | 24 nM | 40 nM | – |
| 1A9 antibody (human CD33^PAN antibody clone, hybridoma-derived) (antibody, V domains shown) VH: EVQLVESGGGLVQPGGSLRLSCAASGFTFSIYDMHWVRQATGKGLEWVSAIGTAGDTYYAGSVKGRFTISRENAKNSLYLQMNSLRAGDTAVYYCAREYSGYYFDYWGQGTLVTVSS VL: AIQMTQSPSSLSASVGDRVTITCRASQDIRNDLGWYQQKPGKAPKILIYGASSLQSGVPSRFSGSGSGTDFTFTISSLQPEDFATYYCLQEYNYPCTFGQGTKLEIK | – | 36 nM | 130 nM | 67 nM |
| 1E6 antibody (human CD33^PAN antibody clone, hybridoma-derived) (antibody, V domains shown) VH: QVQLVESGGGVVQPGRSLRLSCAASGFTFSSYDIHWVRQAPGKGLEWVAVIWYDGSHNYYSDSVKGRFTISRDNSKNTLYLQMNSLRAEDTAVYYCARDYSGSYYDYWGQGTLVTVSS VL: AIQMTQSPSSLSASVGDRVTITCRASQGIRNDLGWYQQKPGKAPKLLIYAASNLQSGVPSRFSGSGSGTDFTLTISSLQPEDFATYYCLQDYSYPRTFGQGTKVEIK | – | 67 nM | 78 nM | 69 nM |
| 1H10 antibody (human CD33^PAN antibody clone, hybridoma-derived) (antibody, V domains shown) VH: QVQLVQSGAEVKKPGASVKVSCKGSGYIFTSYDMHWVRQAPGQGLEWMGIIDPSGGSTSYAQKFQGRVTMTRDTSMSTVYMELSSLRSEDTAVYYCTRDYSWSYFDYWGQGTLVTVSS VL: AIQMTQSPSSLSASVGDRVTITCRASQGIRIYLGWYQQKPGKAPKLLIYATSSLQSGVPSRFSGSGSGTDFTLTISSLQPEDFATYYCLQDYNYPWTFGQGTKVEIK | 3.71 nM | 13 nM | 42 nM | 112 nM |
| 1B9 antibody (human CD33^PAN antibody clone, hybridoma-derived) (antibody, V domains shown) VH: QVQLVESGGGVVQPGRSLRLSCAASGFIFSSYDIHWVRQAPGKGLEWVAVIWYDGSHNYYSDSVKGRFTISRDNSKNTLYLQMNSLRAEDTAVYYCARDYSGSYFDYWGQGTLVTVSS VL: AIQMTQSPSSLSASVGDRVTITCRASQDIRNDLGWYLQRPGKAPKLLIYAASSLQSGVPSRFSGSGSGTDFTLTISSLQPEDFATYYCLQDYSYPRTFGQGTTVEIK | – | – | – | 77 nM |
| 1D2 antibody (human CD33^PAN antibody clone, hybridoma-derived) (antibody, V domains shown) VH: QVQLVESGGGVVQPGRSLRLSCAASGFTFSSYDIHWVRQAPGKGLEWVAVIWYDGSQKYYADSVKGRFTISRDNSKNTLYLQMNSLRAEDTAVYYCARDYSGSYYDYWGQGTLVTVSS VL: AIQMTQSPSSLSASVGDRVTITCRASQGIRNDLGWYQQKPGKAPELLIYATSSLQSGVPSRFSGSGSGTDFTLIISSLQPEDFATYYCLQDYSYPRTFGQGTKVEIK | – | – | – | 116 nM |
